# Assay results published in PMC5462737.
# Legend:
# [1] = target: F1Fo ATP synthase from E. coli, labeled with ATTO 594 (E. coli) (UniProt P0ABB4)
# [2] = target: F1Fo ATP synthase from E. coli, labeled with ATTO 594 (E. coli) (UniProt P0ABB4); remark: listed apart in the source
# UniProt P0ABB4, sequence (P0ABB4 whole entry, looked up): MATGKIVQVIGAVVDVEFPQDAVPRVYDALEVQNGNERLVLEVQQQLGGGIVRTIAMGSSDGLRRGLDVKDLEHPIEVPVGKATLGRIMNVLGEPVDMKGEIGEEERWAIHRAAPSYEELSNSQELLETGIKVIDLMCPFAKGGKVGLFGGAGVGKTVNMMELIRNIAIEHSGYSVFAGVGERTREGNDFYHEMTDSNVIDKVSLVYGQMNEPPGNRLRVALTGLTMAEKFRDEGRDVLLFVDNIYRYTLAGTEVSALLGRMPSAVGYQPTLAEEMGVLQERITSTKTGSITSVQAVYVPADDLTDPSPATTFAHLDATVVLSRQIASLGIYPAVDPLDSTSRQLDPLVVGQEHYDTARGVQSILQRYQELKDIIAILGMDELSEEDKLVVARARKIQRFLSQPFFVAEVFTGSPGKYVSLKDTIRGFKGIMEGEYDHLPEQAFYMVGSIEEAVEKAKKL
"coupled activity (ATP-synthesis rate driven by proton pumping of cyt. bo3; luciferin/luciferase luminescence) in 100 nm DOPC vesicles, relative to unlabeled proteins [1]","normalized ATP-synthesis rate in 100 nm DOPC:DOPG vesicles, 0-40% DOPG, relative to 100% DOPC; value at 60% DOPC [2]","coupled activity (ATP-synthesis rate driven by proton pumping of cyt. bo3) in 100 nm DOPC vesicles, increase relative to unlabeled proteins [1]",Substance
5 fold,60%,,"cytochrome bo3 (ubiquinol oxidase) from E. coli, labeled with ATTO 647N (complex)"
,,< 2 fold,"cytochrome bo3 (ubiquinol oxidase) from E. coli, labeled with Abberior STAR 635 (complex)"
